Target: the molecule itself
Experiment: SEC-RALS; size-exclusion chromatography with right-angle light scattering; 50 µL of 2–10 mg/mL protein, 20 mM HEPES pH 7.5, 150 mM NaCl, Superdex 200 increase 10/300 GL, 25 °C

B1: wild-type AtPHR1^280–360 (pMH-HT construct) (domain or fragment)
chain: not shown
notes: AtPHR1, Arabidopsis thaliana, residues 280-360 (coiled-coil domain); also called AtPHR1 CC; AtPHR^280–360; not shown: 6xHis, N-terminal, cleaved
With B1 the “stoichiometry N” value was 4.

B2: wild-type AtPHR1^222–358 (domain or fragment)
chain: not shown
notes: AtPHR1, Arabidopsis thaliana, residues 222-358 (MYB and CC domains only); also called AtPHR1 MYB-CC; untagged AtPHR1^222–358; not shown: 6xHis, N-terminal, cleaved
For B2, the “stoichiometry N” value was 2.

B3: full-length OsPHR2 (OsPHR2^1-426, wild type) (natural protein)
chain: not shown
notes: OsPHR2, rice MYB-CC transcription factor, residues 1-426, called full-length; also called wild-type OsPHR2; not shown: 8xHis, N-terminal, cleaved; Strep, N-terminal, cleaved; GB1, N-terminal, cleaved
B3 was tested, and the “stoichiometry N” value was 4.

B4: AtPHR1^280–360 KHR/A (domain or fragment)
chain: not shown
notes: AtPHR1, Arabidopsis thaliana, residues 280-360, KHR motif mutated to alanine; not shown: 6xHis, N-terminal, cleaved
B4: binds.
